Assay results: patent US20090018083A1 (ALBERT EINSTEIN SCHOOL OF MEDICINE OF YESHIVA UNIVERSITY, published 2009)
No end group written: not given here.

Columns and labels:
PLZF BTB domain [1] = target: T1, PLZF BTB domain (UniProt Q05516 6-126, limits assumed); test: ITC
T1 construct: domain: BTB domain; Purified protein; also called BTB^PLZF
T1 sequence (looked up): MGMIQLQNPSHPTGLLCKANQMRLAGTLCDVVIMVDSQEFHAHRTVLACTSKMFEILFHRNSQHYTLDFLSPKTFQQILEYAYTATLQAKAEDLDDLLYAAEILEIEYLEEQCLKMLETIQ

[2] = target: T2, BCL6-3C BTB domain (human BCL6 residues 5-129 with C8Q/C67R/C84N) (human, UniProt P41182 5-129); test: native-gel mobility shift assay
PLZF BTB domain [3] = target: T1, PLZF BTB domain; test: SPR
[4] = target: T2, BCL6-3C BTB domain (human BCL6 residues …); test: SPR, biotinylated peptide on streptavidin chip, BCL6-3C BTB domain injected
[5] = target: T2, BCL6-3C BTB domain (human BCL6 residues …); test: co-purification
[6] = target: T2, BCL6-3C BTB domain (human BCL6 residues …); test: Ni-NTA co-purification with the His-tagged thioredoxin fusion, SDS-PAGE, stained gel
BCL6-3C BTB domain H116A = BCL6-3C BTB domain H116A (human, UniProt P41182 5-129); test: co-purification
BCL6-3C BTB domain N21K = BCL6-3C BTB domain N21K (human, UniProt P41182 5-129); test: co-purification
[7] = target: T2, BCL6-3C BTB domain (human BCL6 residues …); test: non-denaturing PAGE mobility shift, constant BTB domain, increasing peptide

B1: SMRT^1414-1430 peptide (SMRT-BBD), no additional N-terminal residues (peptide)
peptide: LVATVKEAGRSIHEIPR
notes: Made by thrombin digestion of the fusion protein
B1: no binding (PLZF BTB domain [1]).

RSEIISTAPWSSVVPGP [BCoR peptide with the S507W/W509S double mutation]: no binding [2].

B2: SMRT^1414-1441 peptide (fragment d), biotinylated, immobilised for SPR (peptide, UniProt Q9Y618 1414-1441, looked up)
peptide: LVATVKEAGRSIHEIPREELRHTPELPL
modifications: also: biotinylated lysine in N-terminal tag residues (not given here)
notes: not shown: N-terminal residues left after TEV cleavage (BirA biotinylation motif, thrombin site)
For B2, the binding result (PLZF BTB domain [3]) was “no binding” and the Kd [4] was 15.8 nM.

B3: hexahistidine tagged fusion protein containing BCoR residues 542 to 753 (other, UniProt Q6W2J9 542-753, looked up)
chain: SSCPRMGGTDAVITNVSGSVSSAGRPASASPAPNANADGTKTSRSSVETTPSVIQHVGQPPATPAKHSSSTSSKGAKASNPEPSFKANENGLPPSSIFLSPNEAFRSPPIPYPRSYLPYPAPEGIAVSPLSLHGKGPVYPHPVLLPNGSLFPGHLAPKPGLPYGLPTGRPEFVTYQDALGLGMVHPMLIPHTPIEITKEEKPERRSRSHERA
notes: not shown: hexahistidine tagged fusion partner
B3: no binding [5].

B4: hexahistidine tagged fusion protein containing BCoR residues 112 to 342 (other, UniProt Q6W2J9 112-342, looked up)
chain: LGFSSERNPEMQFKPNTPETVEASAVSGKPPNGFSAIYKTPPGIQKSAVATAEALGLDRPASDKQSPLNINGASYLRLPWVNPYMEGATPAIYPFLDSPNKYSLNMYKALLPQQSYSLAQPLYSPVCTNGERFLYLPPPHYVGPHIPSSLASPMRLSTPSASPAIPPLVHCADKSLPWKMGVSPGNPVDSHAYPHIQNSKQPRVPSAKAVTSGLPGDTALLLPPSPRPSPR
notes: as for B3
B4: no binding [5].

B5: SMRT^1414-1430 peptide, biotinylated, immobilised for SPR (peptide)
peptide: LVATVKEAGRSIHEIPR
modifications: also: biotinylated lysine 8 residues N-terminal to the peptide, not in the given chain
notes: SPR form of the minimal fragment; not shown: N-terminal residues left after TEV cleavage (BirA biotinylation motif, thrombin site)
B5: no binding (PLZF BTB domain [3]).

B6: SMRT-BBD with residues 1427-1430 replaced by alanines (EIPR->AAAA) (peptide)
peptide: LVATVKEAGRSIHAAAA
notes: also called AAAA mutant; not shown: N-terminal fusion or tag residues depend on the assay (His-Trx fusion in co-purification, biotinylated tag remnant in SP)
B6: no binding [6].

B7: SMRT-BBD with the SI to IS substitution at residues 1424-1425 (peptide)
peptide: LVATVKEAGRISHEIPR
notes: The text calls it SMRT-BBD; also called IS mutant; not shown: N-terminal fusion or tag residues depend on the assay (His-Trx fusion in co-purification, biotinylated tag remnant in SP)
B7: no binding [6].

B8: SMRT^1417-1441 peptide, biotinylated, immobilised for SPR (peptide, UniProt Q9Y618 1417-1441, looked up)
peptide: TVKEAGRSIHEIPREELRHTPELPL
modifications: also: biotinylated lysine in N-terminal tag residues (not given here)
notes: as for B2
B8: no binding (PLZF BTB domain [3]).

RSEIISTAPASAVAPGP [BCoR peptide with the S507A/W509A/V511A triple mutation]: no binding [2].

B9: hexahistidine tagged fusion protein containing BCoR residues 317 to 547 (other, UniProt Q6W2J9 317-547, looked up)
chain: SAKAVTSGLPGDTALLLPPSPRPSPRVHLPTQPAADTYSEFHKHYARISTSPSVALSKPYMTVSSEFPAARLSNGKYPKAPEGGEGAQPVPGHARKTAVQDRKDGSSPPLLEKQTVTKDVTDKPLDLSSKVVDVDASKADHMKKMAPTVLVHSRAGSGLVLSGSEIPKETLSPPGNGCAIYRSEIISTAPSSWVVPGPSPNEENNGKSMSLKNKALDWAIPQQRSSSCPRM
notes: as for B3
B9: no binding (BCL6-3C BTB domain H116A); no binding (BCL6-3C BTB domain N21K).

B10: BCoR 498-514 peptide (BCoR BBD) (peptide)
peptide: RSEIISTAPSSWVVPGP
notes: Purified peptide used for co-crystallisation; also called BCoR-BBD peptide; BCoR peptide
B10: binds [7].
